Test results: article PMC11951922

What follows are binders tested against AF-tubulin (porcine) (UniProt P02550).
Chain of UniProt P02550 (P02550 whole entry, chain 1 of 2): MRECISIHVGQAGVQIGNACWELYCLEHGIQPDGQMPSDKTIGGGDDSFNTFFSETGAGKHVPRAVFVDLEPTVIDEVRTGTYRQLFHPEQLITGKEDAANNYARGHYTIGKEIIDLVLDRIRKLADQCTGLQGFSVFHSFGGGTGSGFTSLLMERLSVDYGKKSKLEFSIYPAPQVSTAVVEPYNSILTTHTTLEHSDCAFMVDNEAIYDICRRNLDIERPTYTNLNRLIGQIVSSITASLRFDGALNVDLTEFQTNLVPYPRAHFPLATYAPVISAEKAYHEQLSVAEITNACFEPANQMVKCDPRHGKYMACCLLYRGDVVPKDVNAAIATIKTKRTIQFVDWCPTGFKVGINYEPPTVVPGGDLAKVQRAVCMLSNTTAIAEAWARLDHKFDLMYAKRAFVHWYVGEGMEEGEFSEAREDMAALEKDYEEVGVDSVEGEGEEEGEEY
Chain of UniProt P02550 (Q767L7 whole entry, chain 2 of 2, further chain): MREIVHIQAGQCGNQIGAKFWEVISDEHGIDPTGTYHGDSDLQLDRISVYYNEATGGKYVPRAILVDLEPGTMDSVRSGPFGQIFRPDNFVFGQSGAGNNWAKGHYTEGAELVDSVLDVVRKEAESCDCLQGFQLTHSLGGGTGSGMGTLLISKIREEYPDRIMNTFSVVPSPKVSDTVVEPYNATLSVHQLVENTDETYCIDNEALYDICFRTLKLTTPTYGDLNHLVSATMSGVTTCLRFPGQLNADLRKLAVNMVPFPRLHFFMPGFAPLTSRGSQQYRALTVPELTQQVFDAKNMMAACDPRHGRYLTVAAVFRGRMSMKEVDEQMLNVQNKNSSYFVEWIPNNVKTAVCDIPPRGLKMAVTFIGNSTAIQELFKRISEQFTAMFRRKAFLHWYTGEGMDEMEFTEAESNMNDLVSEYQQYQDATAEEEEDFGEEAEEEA

Pearson's correlation coefficient (PCC) of co-localisation of TMR-microtubule and AF-tubulin fluorescence in CLSM images, 100 uM peptide, doublet method (no peptide: 0.07) | Binder
0.7 | KAKAKAKAKAKAKAGGGSGGGSGGGSGGGKKHVPGGGSVQIVYKPVDL [KA7–(GGGS)3–TP]
0.72 | KAKAKAKAKAKAKAEAAAKEAAAKGGGKKHVPGGGSVQIVYKPVDL [KA7–(EAAAK)2–TP]
0.61 | KAKAKAKAKAKAKAGGGSGGGKKHVPGGGSVQIVYKPVDL [KA7–GGGS–TP]
